Assay results taken from PMC5123862, “Characterization of human translesion DNA synthesis across a UV-induced DNA lesion” (eLife, 2016).

Experiments:
[1] = biological target: T1, Cy5-labeled PCNA (human PCNA site-specifically labeled with Cy5 at amino acid residue 107) (human, UniProt P12004 1-261, Cy5 at amino acid residue 107); assay: FRET or BRET; holoenzyme assembly: RFC (100 nM), Cy5-PCNA (100 nM) and forked Cy3-P/T DNA (100 nM, biotin/Neutravidin) pre-incubated with 1 mM ATP, titrated with unlabeled pol η; FRET between DNA and PCNA (I670/I570); one-site binding model; room temperature; ionic strength 200 mM; details: both partners purified
[2] = biological target: T1, Cy5-labeled PCNA (human PCNA …); assay: FRET or BRET; competitive inhibition: pre-assembled Cy3-Pol η•Cy5-PCNA complex (200 nM Cy3-Pol η, 20 nM Cy5-PCNA) titrated with unlabeled competitor (PCNA, (Ub)3-PCNA or pol η, 0-5 μM); dose-response model, Ki from IC50 by the Munson-Rodbard solution; room temperature; replication assay buffer, ionic strength 200 mM; details: both partners purified

T1 sequence (P12004 whole entry N107C): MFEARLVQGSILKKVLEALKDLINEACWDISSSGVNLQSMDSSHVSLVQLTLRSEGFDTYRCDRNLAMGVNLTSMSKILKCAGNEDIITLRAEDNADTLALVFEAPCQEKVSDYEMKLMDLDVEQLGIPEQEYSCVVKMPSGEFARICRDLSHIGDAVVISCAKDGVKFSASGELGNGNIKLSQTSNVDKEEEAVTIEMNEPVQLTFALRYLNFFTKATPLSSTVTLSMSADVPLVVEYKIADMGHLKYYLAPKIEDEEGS

KD for Cy5-PCNA loaded on forked Cy3-P/T DNA (pol η holoenzyme formation) [1]: 28 ± 5.38 nM
Ki [2]: 112 ± 15.5 nM
B1: Pol η (human DNA polymerase eta, full length, wild type, unlabeled) (enzyme, UniProt Q9Y253 1-713, looked up)
chain: MATGQDRVVALVDMDCFFVQVEQRQNPHLRNKPCAVVQYKSWKGGGIIAVSYEARAFGVTRSMWADDAKKLCPDLLLAQVRESRGKANLTKYREASVEVMEIMSRFAVIERASIDEAYVDLTSAVQERLQKLQGQPISADLLPSTYIEGLPQGPTTAEETVQKEGMRKQGLFQWLDSLQIDNLTSPDLQLTVGAVIVEEMRAAIERETGFQCSAGISHNKVLAKLACGLNKPNRQTLVSHGSVPQLFSQMPIRKIRSLGGKLGASVIEILGIEYMGELTQFTESQLQSHFGEKNGSWLYAMCRGIEHDPVKPRQLPKTIGCSKNFPGKTALATREQVQWWLLQLAQELEERLTKDRNDNDRVATQLVVSIRVQGDKRLSSLRRCCALTRYDAHKMSHDAFTVIKNCNTSGIQTEWSPPLTMLFLCATKFSASAPSSSTDITSFLSSDPSSLPKVPVTSSEAKTQGSGPAVTATKKATTSLESFFQKAAERQKVKEASLSSLTAPTQAPMSNSPSKPSLPFQTSQSTGTEPFFKQKSLLLKQKQLNNSSVSSPQQNPWSNCKALPNSLPTEYPGCVPVCEGVSKLEESSKATPAEMDLAHNSQSMHASSASKSVLEVTQKATPNPSLLAAEDQVPCEKCGSLVPVWDMPEHMDYHFALELQKSFLQPHSSNPQVVSAVSHQGKRNPKSPLACTNKRPRPEGMQTLESFFKPLTH
notes: human DNA polymerase eta (pol η), single subunit; N-terminal catalytic core residues 1-475, C-terminal portion residues 476-713; also called unlabeled pol η; source: recombinant, purified from the pET21A-hPol η expression vector (modified protocol of Li et al., 2013)
